test system: Escherichia coli TOP10; assay: shrunken log2 fold change of peptide-encoding DNA abundance (4.5 h post-induction vs induction); higher = less antimicrobial activity (less host growth inhibition); settings: time post-induction: 4.5 h; library: site-saturation at positions 5, 18, 19, 20
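Also: peptides expressed intracellularly from a pBAD plasmid library in pooled LB shake-flask culture, induced with 0.3% L-arabinose, DNA abundance read by NGS, three biological replicates, DESeq2 with apeglm shrinkage.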

| Sequence | shrunken log2 fold change |
| --- | --- |
| RRIRVRPPRLPRPRPRPCNWPRP | -0.327 |
| RRIRMRPPRLPRPRPRPHCHPRP | -0.137 |
| RRIRWRPPRLPRPRPRPIKRPRP | 0.21 |
| RRIRWRPPRLPRPRPRPDYLPRP | -0.0223 |
| RRIRWRPPRLPRPRPRPTVYPRP | 0.116 |
| RRIRRRPPRLPRPRPRPRTRPRP | 0.528 |
| RRIRTRPPRLPRPRPRPMFPPRP | 0.0617 |
| RRIRKRPPRLPRPRPRPFEKPRP | -0.045 |
| RRIRPRPPRLPRPRPRPQNIPRP | -0.456 |
| RRIRLRPPRLPRPRPRPDHWPRP | 0.143 |
| RRIRWRPPRLPRPRPRPLGDPRP | 0.598 |
| RRIRDRPPRLPRPRPRPVDQPRP | -0.131 |
| RRIRRRPPRLPRPRPRPYRYPRP | 0.0464 |
| RRIRHRPPRLPRPRPRPTVPPRP | -0.0133 |
| RRIRRRPPRLPRPRPRPTNMPRP | -0.0659 |
| RRIRFRPPRLPRPRPRPFMIPRP | -0.456 |
| RRIRERPPRLPRPRPRPHNNPRP | 0.486 |
| RRIRSRPPRLPRPRPRPAADPRP | 0.252 |
| RRIRQRPPRLPRPRPRPTTKPRP | -0.122 |
| RRIRKRPPRLPRPRPRPALYPRP | 0.453 |
| RRIRFRPPRLPRPRPRPQISPRP | -0.217 |
| RRIRQRPPRLPRPRPRPTKCPRP | 0.0325 |
| RRIRQRPPRLPRPRPRPCVKPRP | -0.0496 |
| RRIRWRPPRLPRPRPRPDIDPRP | 0.546 |
| RRIRVRPPRLPRPRPRPHCGPRP | -0.309 |

| Sequence | shrunken log2 fold change |
| --- | --- |
| RRIRMRPPRLPRPRPRPYYFPRP | -0.537 |
| RRIRRRPPRLPRPRPRPPADPRP | 0.781 |
| RRIRHRPPRLPRPRPRPGKIPRP | -0.769 |
| RRIRNRPPRLPRPRPRPFPLPRP | -0.0286 |
| RRIRARPPRLPRPRPRPWVQPRP | -0.0652 |
| RRIRARPPRLPRPRPRPTTCPRP | 0.0733 |
| RRIRMRPPRLPRPRPRPGVTPRP | 0.285 |
| RRIRERPPRLPRPRPRPYWPPRP | -0.249 |
| RRIRTRPPRLPRPRPRPIAPPRP | -0.0608 |
| RRIRHRPPRLPRPRPRPIAWPRP | 0.0843 |
| RRIRMRPPRLPRPRPRPRKNPRP | 0.433 |
| RRIRPRPPRLPRPRPRPPEKPRP | 0.544 |
| RRIRYRPPRLPRPRPRPGEEPRP | 0.0322 |
| RRIRCRPPRLPRPRPRPVQDPRP | 0.0523 |
| RRIRERPPRLPRPRPRPMNVPRP | -0.00243 |
| RRIRERPPRLPRPRPRPKLAPRP | 0.00329 |
| RRIRNRPPRLPRPRPRPHMAPRP | -0.401 |
| RRIRNRPPRLPRPRPRPAIPPRP | -0.202 |
| RRIRCRPPRLPRPRPRPIANPRP | 0.0422 |
| RRIRKRPPRLPRPRPRPKGNPRP | 0.325 |
| RRIRRRPPRLPRPRPRPYAVPRP | -0.191 |
| RRIRGRPPRLPRPRPRPADKPRP | 0.365 |
| RRIRYRPPRLPRPRPRPFWHPRP | -0.556 |
| RRIRMRPPRLPRPRPRPPITPRP | -0.109 |
| RRIRERPPRLPRPRPRPVMIPRP | -0.22 |

| Sequence | shrunken log2 fold change |
| --- | --- |
| RRIRMRPPRLPRPRPRPPRKPRP | 1.49 |
| RRIRCRPPRLPRPRPRPYFPPRP | -0.513 |
| RRIRIRPPRLPRPRPRPEFLPRP | -0.0199 |
| RRIRTRPPRLPRPRPRPHKVPRP | -0.00818 |
| RRIRRRPPRLPRPRPRPCRLPRP | 0.144 |
| RRIRVRPPRLPRPRPRPRGQPRP | 0.131 |
| RRIRTRPPRLPRPRPRPMLKPRP | -0.106 |
| RRIRDRPPRLPRPRPRPDHHPRP | -0.616 |
| RRIRSRPPRLPRPRPRPCQFPRP | -0.0444 |
| RRIRKRPPRLPRPRPRPEEWPRP | -0.0212 |
| RRIRWRPPRLPRPRPRPANNPRP | -0.205 |
| RRIRSRPPRLPRPRPRPDAIPRP | 0.339 |
| RRIRRRPPRLPRPRPRPIVLPRP | -0.102 |
| RRIRARPPRLPRPRPRPWREPRP | -0.0619 |
| RRIRWRPPRLPRPRPRPFQMPRP | -0.692 |
| RRIRERPPRLPRPRPRPTYWPRP | -0.219 |
| RRIRFRPPRLPRPRPRPGYDPRP | -0.292 |
| RRIRDRPPRLPRPRPRPRTNPRP | -0.179 |
| RRIRERPPRLPRPRPRPVCVPRP | -0.0194 |
| RRIRARPPRLPRPRPRPGVKPRP | 0.0545 |
| RRIRMRPPRLPRPRPRPNSSPRP | -0.1 |
| RRIRIRPPRLPRPRPRPNDAPRP | -0.182 |
| RRIRSRPPRLPRPRPRPPFVPRP | 0.148 |
| RRIRQRPPRLPRPRPRPAFMPRP | -0.0902 |
| RRIRYRPPRLPRPRPRPNDMPRP | -1.16 |

| Sequence | shrunken log2 fold change |
| --- | --- |
| RRIRHRPPRLPRPRPRPEWQPRP | 0.145 |
| RRIRPRPPRLPRPRPRPDAHPRP | 0.209 |
| RRIRHRPPRLPRPRPRPQPMPRP | -0.109 |
| RRIRQRPPRLPRPRPRPKMAPRP | 0.12 |
| RRIRLRPPRLPRPRPRPWSGPRP | -0.000803 |
| RRIRMRPPRLPRPRPRPHNNPRP | -0.153 |
| RRIRCRPPRLPRPRPRPLNDPRP | 0.0553 |
| RRIRGRPPRLPRPRPRPVQFPRP | 0.535 |
| RRIRYRPPRLPRPRPRPFDTPRP | -1.81 |
| RRIRIRPPRLPRPRPRPAKLPRP | -0.302 |
| RRIRARPPRLPRPRPRPCVKPRP | 0.069 |
| RRIRRRPPRLPRPRPRPNTIPRP | -0.372 |
| RRIRVRPPRLPRPRPRPNDLPRP | -0.31 |
| RRIRRRPPRLPRPRPRPNTWPRP | 0.0852 |
| RRIRPRPPRLPRPRPRPWAKPRP | -0.0178 |
| RRIRERPPRLPRPRPRPADTPRP | -0.262 |
| RRIRWRPPRLPRPRPRPVLHPRP | -0.0358 |
| RRIRPRPPRLPRPRPRPHFMPRP | -0.231 |
| RRIRRRPPRLPRPRPRPTWDPRP | 0.19 |
| RRIRCRPPRLPRPRPRPMMPPRP | -0.11 |
| RRIRPRPPRLPRPRPRPSAKPRP | 0.528 |
| RRIRMRPPRLPRPRPRPQTEPRP | 0.12 |
| RRIRHRPPRLPRPRPRPGPWPRP | 0.166 |
| RRIRYRPPRLPRPRPRPVMTPRP | -0.09 |
| RRIRYRPPRLPRPRPRPRTDPRP | -0.0428 |

| Sequence | shrunken log2 fold change |
| --- | --- |
| RRIRKRPPRLPRPRPRPTGMPRP | 0.128 |
| RRIRRRPPRLPRPRPRPDMWPRP | 0.103 |
| RRIRMRPPRLPRPRPRPLHQPRP | 0.0887 |
| RRIRCRPPRLPRPRPRPTNFPRP | -0.124 |
| RRIRQRPPRLPRPRPRPYTHPRP | -0.723 |
| RRIRFRPPRLPRPRPRPHIPPRP | -0.289 |
| RRIRKRPPRLPRPRPRPQINPRP | -0.159 |
| RRIRNRPPRLPRPRPRPLKPPRP | 0.203 |
| RRIRTRPPRLPRPRPRPCVNPRP | -0.0913 |
| RRIRMRPPRLPRPRPRPLWLPRP | 0.563 |
| RRIRYRPPRLPRPRPRPFVIPRP | -0.31 |
| RRIRARPPRLPRPRPRPTITPRP | 0.187 |
| RRIRPRPPRLPRPRPRPFKMPRP | -0.384 |
| RRIRLRPPRLPRPRPRPSQAPRP | 0.182 |
| RRIRKRPPRLPRPRPRPQNMPRP | -0.521 |
| RRIRCRPPRLPRPRPRPKNAPRP | -0.103 |
| RRIRDRPPRLPRPRPRPTTWPRP | 0.467 |
| RRIRARPPRLPRPRPRPCREPRP | 0.0197 |
| RRIRCRPPRLPRPRPRPFSKPRP | -0.203 |
| RRIRLRPPRLPRPRPRPIECPRP | 0.0614 |
| RRIRVRPPRLPRPRPRPQGTPRP | -0.289 |
| RRIRYRPPRLPRPRPRPLVAPRP | -0.274 |
| RRIRRRPPRLPRPRPRPMMAPRP | 0.142 |
| RRIRCRPPRLPRPRPRPPVYPRP | 0.000934 |
| RRIRERPPRLPRPRPRPYEAPRP | -0.59 |
